# Laboratory results taken from patent publication US20080194019.
# T1: STRAD (human, from pCDNA4 HisMax), Q7RTN6
# T1 chain: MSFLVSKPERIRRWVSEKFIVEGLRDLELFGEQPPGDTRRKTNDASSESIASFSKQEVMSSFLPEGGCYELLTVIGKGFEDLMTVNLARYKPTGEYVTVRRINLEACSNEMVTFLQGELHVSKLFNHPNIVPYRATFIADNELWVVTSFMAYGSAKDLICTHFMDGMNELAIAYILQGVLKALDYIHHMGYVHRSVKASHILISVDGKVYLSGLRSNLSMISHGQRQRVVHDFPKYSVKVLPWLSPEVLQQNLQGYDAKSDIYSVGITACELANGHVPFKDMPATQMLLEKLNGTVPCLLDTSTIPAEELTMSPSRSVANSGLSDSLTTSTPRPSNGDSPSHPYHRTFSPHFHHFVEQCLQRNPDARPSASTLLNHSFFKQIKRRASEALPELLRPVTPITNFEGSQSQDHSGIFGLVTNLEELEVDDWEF
# What was measured:
# [1] = target: R-T peptide library (arginine fixed at the -1 position of a threonine phosphoacceptor)
# [2] = target: LxT peptide library (x-x-x-x-Leu-x-Thr-x-x-x peptides with a fixed lysine tail K-K-K)
# [3] = target: MBP-AMPKa (1-312) bacterial fusion protein
# [4] = target: T1, STRAD (human, from pCDNA4 HisMax), …
Protein,"phosphorylation of degenerate peptide libraries (32P incorporation, p81 paper) [1]","phosphorylation of degenerate peptide libraries (32P incorporation, p81 paper) [2]",AMPK kinase activity towards the SAMS peptide after in vitro phosphorylation by LKB1 [3],trans-phosphorylation of MBP-AMPKα in vitro [3],in vitro phosphorylation of MBP-AMPKα (32P incorporation; phospho-Thr172 immunoblot) [3],LKB1 autophosphorylation in vitro [4],phosphorylation of the SAMS peptide (32P γ-ATP) (SAMS peptide),AMPK kinase activity towards the SAMS peptide after in vitro kinase reaction with LKB1 [3]
"STRAD-activated LKB1 (Flag-tagged wild-type human LKB1 co-expressed with STRAD, Flag immunoprecipitate) (protein) chain 1: MEVVDPQQLGMFTEGELMSVGMDTFIHRIDSTEVIYQPRRKRAKLIGKYLMGDLLGEGSYGKVKEVLDSETLCRRAVKILKKKKLRRIPNGEANVKKEIQLLRRLRHKNVIQLVDVLYNEEKQKMYMVMEYCVCGMQEMLDSVPEKRFPVCQAHGYFCQLIDGLEYLHSQGIVHKDIKPGNLLLTTGGTLKISDLGVAEALHPFAADDTCRTSQGSPAFQPPEIANGLDTFSGFKVDIWSAGVTLYNITTGLYPFEGDNIYKLFENIGKGSYAIPGDCGPPLSDLLKGMLEYEPAKRFSIRQIRQHSWFRKKHPPAEAPVPIPPSPDTKDRWRSMTVVPYLEDLHGADEDEDLFDIEDDIIYTQDFTVPGQVPEEEASHNGQRRGLPKAVCMNGTEAAQLSTKSRAEGRAPNPARKACSASSKIRRLSACKQQ chain 2: MSFLVSKPERIRRWVSEKFIVEGLRDLELFGEQPPGDTRRKTNDASSESIASFSKQEVMSSFLPEGGCYELLTVIGKGFEDLMTVNLARYKPTGEYVTVRRINLEACSNEMVTFLQGELHVSKLFNHPNIVPYRATFIADNELWVVTSFMAYGSAKDLICTHFMDGMNELAIAYILQGVLKALDYIHHMGYVHRSVKASHILISVDGKVYLSGLRSNLSMISHGQRQRVVHDFPKYSVKVLPWLSPEVLQQNLQGYDAKSDIYSVGITACELANGHVPFKDMPATQMLLEKLNGTVPCLLDTSTIPAEELTMSPSRSVANSGLSDSLTTSTPRPSNGDSPSHPYHRTFSPHFHHFVEQCLQRNPDARPSASTLLNHSFFKQIKRRASEALPELLRPVTPITNFEGSQSQDHSGIFGLVTNLEELEVDDWEF",Arginine in the -1 position was selected over random amino acids,leucine at the -2 position was strongly selected,"induced AMPK kinase activity an average of 27 and 50 fold, respectively",co-expression of LKB1 with STRAD led to a dramatic proportional increase in LKB1 autophosphorylation and trans-phosphorylation of MBP-AMPKα,–,–,–,–
"Flag-tagged human LKB1, wild-type, immunoprecipitated from HT1080 cells (protein) MEVVDPQQLGMFTEGELMSVGMDTFIHRIDSTEVIYQPRRKRAKLIGKYLMGDLLGEGSYGKVKEVLDSETLCRRAVKILKKKKLRRIPNGEANVKKEIQLLRRLRHKNVIQLVDVLYNEEKQKMYMVMEYCVCGMQEMLDSVPEKRFPVCQAHGYFCQLIDGLEYLHSQGIVHKDIKPGNLLLTTGGTLKISDLGVAEALHPFAADDTCRTSQGSPAFQPPEIANGLDTFSGFKVDIWSAGVTLYNITTGLYPFEGDNIYKLFENIGKGSYAIPGDCGPPLSDLLKGMLEYEPAKRFSIRQIRQHSWFRKKHPPAEAPVPIPPSPDTKDRWRSMTVVPYLEDLHGADEDEDLFDIEDDIIYTQDFTVPGQVPEEEASHNGQRRGLPKAVCMNGTEAAQLSTKSRAEGRAPNPARKACSASSKIRRLSACKQQ",–,–,"induced AMPK kinase activity an average of 27 and 50 fold, respectively",–,wild-type but not kinase-dead LKB1 immunoprecipitated from mammalian cells efficiently phosphorylated a bacterially expressed maltose-binding protein (MBP) fusion product of the AMPKα catalytic subunit in vitro,co-expression of LKB1 with STRAD led to a dramatic proportional increase in LKB1 autophosphorylation,LKB1 alone was incapable of detectably phosphorylating the SAMS peptide,–
"Flag-tagged human LKB1, kinase dead (K78I), immunoprecipitated from HT1080 cells (protein) MEVVDPQQLGMFTEGELMSVGMDTFIHRIDSTEVIYQPRRKRAKLIGKYLMGDLLGEGSYGKVKEVLDSETLCRRAVIILKKKKLRRIPNGEANVKKEIQLLRRLRHKNVIQLVDVLYNEEKQKMYMVMEYCVCGMQEMLDSVPEKRFPVCQAHGYFCQLIDGLEYLHSQGIVHKDIKPGNLLLTTGGTLKISDLGVAEALHPFAADDTCRTSQGSPAFQPPEIANGLDTFSGFKVDIWSAGVTLYNITTGLYPFEGDNIYKLFENIGKGSYAIPGDCGPPLSDLLKGMLEYEPAKRFSIRQIRQHSWFRKKHPPAEAPVPIPPSPDTKDRWRSMTVVPYLEDLHGADEDEDLFDIEDDIIYTQDFTVPGQVPEEEASHNGQRRGLPKAVCMNGTEAAQLSTKSRAEGRAPNPARKACSASSKIRRLSACKQQ",–,–,–,–,wild-type but not kinase-dead LKB1 immunoprecipitated from mammalian cells efficiently phosphorylated,–,–,Kinase-inactive LKB1 alone or coexpressed with STRAD was unable to activate AMPK
